pKd: −log10 of the molar value.

Holding throughout (assay): EMSA
What all share (details): EMSA: DNA mix 40 mM Tris pH 7.6, 2 mM EDTA, 200 mM NaCl (printed '200 M'), 20% glycerol, 0.2 mg/ml BSA, 2 mM DTT, 20 pM duplex, mixed 1:1 with enzyme in 20 mM …
On the technique in general: A gel shift assay detects complexes by their altered migration in electrophoresis.

Data set [1] relates to MUTYH N238S (MBP fusion) (Homo sapiens).
In data set [2] the test system is MUTYH R241Q (MBP fusion) (Homo sapiens).
For data set [3], the system named is MUTYH R309C (MBP fusion) (Homo sapiens).
Data set [4] deals with MUTYH V246F (MBP fusion) (Homo sapiens).
[5] abbreviates: THF (abasic analog) opposite 8-oxoguanine.
Where [6] appears, read: upper limit estimate, THF (abasic analog) opposite 8-oxoguanine.
The mark [7] stands for this setting: table unit header missing, 2'-fluoro-2'-deoxyadenosine opposite 8-oxoguanine.

By pKd is commonly meant −log10 of the Kd, conventionally taken in molar units. As for Duplex 2 THF:OG (product analog), 30 bp, the negative-log Kd (pKd) in data set [1] (setting [5]) is 10.34; in data set [2] (setting [5]), 9.33; in data set [3] (setting [6]), more than 11.00; in data set [4] (setting [6]), more than 11.00.
Usually Kd stands for a measure of binding affinity in units of concentration. A low value points to higher affinity. Turning to “Duplex 2 fA:OG (substrate analog), 30 bp”, the Kd in data set [1] (setting [7]) amounted to 124 pM; in data set [2] (setting [7]), 629 pM; in data set [3] (setting [7]), 246 pM; in data set [4] (setting [7]), 50 pM.

These data come from article PMC12000561.
